# Data taken from the RNAGym collection of RNA variant scans (doi:10.7554/elife.90254).
# B1: LINE1-full (parent)
# chain: UACGUAGGUGGUUUUCCCCUGAUAGUGCUAAGGGGGCCUGGAAGUUUGGACUGGGCAGAGCUCAACACAGCGUGGCAAAGUGGCUGUGGCUAGACUGCCUCUCUGGAUUCCUCGUCACUCAGCAGGGCAUCUCUGAGAGAAAUGCC
# Variants of: B1
# Assay: self-cleavage, relative activity (ratio to wild type); higher = more cleavage; in vitro, sequencing; the parent is a self-cleaving ribozyme
row,Variant,self-cleavage
1,A31U U115G,0.37
2,A31U U119C,1.62
3,A31U U130C,1.23
4,G32A A50G,0.93
5,G32A A57G,1.37
6,G32A A59G,0.02
7,G32A A64G,0.24
8,G32A A64U,0.36
9,G32A A69G,0.37
10,G32A A69U,0.02
11,G32A A77G,1.56
12,G32A A78U,1.32
13,G32A A79G,1.26
14,G32A A94C,0.04
15,G32A A107G,1.09
16,G32A A121G,1.53
17,G32A A121U,1.45
18,G32A A129G,0.93
19,G32A A129U,1.15
20,G32A A138U,0.89
21,G32A A141G,1.95
22,G32A C51U,0.88
23,G32A C68U,0
24,G32A C101U,0.95

row,Variant,self-cleavage
1,G32A C128A,0.61
2,G32A G34A,0.73
3,G32A G55U,0.32
4,G32A G82A,2.01
5,G32A G83U,0.83
6,G32A G86U,0.12
7,G32A G122A,2.13
8,G32A U39C,1.07
9,G32A U46C,1.19
10,G32A U96A,0.05
11,G32A U100A,0.74
12,G32A U100C,1.34
13,G32A U102A,0.63
14,G32A U104A,1.17
15,G32A U108C,0.76
16,G32A U112C,1.36
17,G32A U115A,1.5
18,G32A U115C,0.95
19,G32A U119A,1.1
20,G32A U130C,1.26
21,G32C A42U,1.67
22,G32C A67G,0
23,G32C A117G,1.53
24,G32C A138G,0.84

row,Variant,self-cleavage
1,G32C G33U,1.02
2,G32C U85C,0.27
3,G32C U87A,0.06
4,G32C U104G,1.26
5,G32C U109A,1.56
6,G32U A65G,0.12
7,G32U A67U,0.13
8,G32U C113A,0.96
9,G32U C113U,0.49
10,G32U G55A,0.18
11,G32U U45A,1.17
12,G32U U73A,0.89
13,G32U U91G,0.1
14,G32U U96C,0.08
15,G32U U100C,2.02
16,G32U U115A,1.04
17,G32U U132A,1.2
18,G32U U134C,0.74
19,G32U U143C,1.1
20,G33A,1.14
21,G33A A59G,0.12
22,G33A A59U,0.65
23,G33A A67G,0.63
24,G33A A136G,1.35

row,Variant,self-cleavage
1,G33A A138U,1.19
2,G33A A140G,1.29
3,G33A A142U,1.43
4,G33A G55A,0.73
5,G33A G83A,0.92
6,G33A U39C,1.16
7,G33A U46C,1.12
8,G33A U52A,0.53
9,G33A U62A,0.01
10,G33A U62C,0.05
11,G33A U100C,1.28
12,G33A U108C,1.47
13,G33A U119C,0.66
14,G33A U130C,1.04
15,G33A U143A,1.07
16,G33A U143C,1.44
17,G33C,1.17
18,G33C A64U,0.64
19,G33C A136G,0
20,G33C A142C,1.28
21,G33C C71U,1.93
22,G33C G89U,0.06
23,G33C U45C,1.95
24,G33C U115C,2.26

row,Variant,self-cleavage
1,G33U,1.27
2,G33U A43G,0.64
3,G33U A77C,0.83
4,G33U A77G,1.78
5,G33U A107G,1.74
6,G33U A121G,0.64
7,G33U A129G,1.34
8,G33U A136U,1.27
9,G33U A138G,1.68
10,G33U A140G,1.83
11,G33U C90G,0.07
12,G33U G74A,0.88
13,G33U G75U,0.91
14,G33U G126C,1.21
15,G33U G144A,1.21
16,G33U U39C,1.16
17,G33U U62C,0.04
18,G33U U73A,1.38
19,G33U U85C,0.06
20,G33U U87C,0.09
21,G33U U96A,0.06
22,G33U U96C,0.17
23,G33U U104A,0.93
24,G33U U104C,1.62

row,Variant,self-cleavage
1,G33U U115A,1.38
2,G33U U119C,1.19
3,G33U U132G,1.74
4,G34A A50G,0.87
5,G34A A50U,0.38
6,G34A A57C,0.07
7,G34A A59G,0.07
8,G34A A67C,0.03
9,G34A A77U,1.33
10,G34A A78G,1.27
11,G34A A78U,1.75
12,G34A A107U,1.2
13,G34A A124G,0
14,G34A A124U,1.32
15,G34A A129G,1.08
16,G34A A140U,1.29
17,G34A C37U,1.1
18,G34A C66U,0.05
19,G34A C146A,1.39
20,G34A G54A,0.78
21,G34A G72A,1.24
22,G34A G82U,2.19
23,G34A G114A,1.47
24,G34A G126A,1.68

row,Variant,self-cleavage
1,G34A U46A,1.2
2,G34A U47C,1.18
3,G34A U62C,0.02
4,G34A U73A,0.8
5,G34A U87G,0.2
6,G34A U96A,0.05
7,G34A U96C,0.05
8,G34A U96G,0.09
9,G34A U102A,1.16
10,G34A U112C,0.94
11,G34A U130C,1.32
12,G34A U132A,1.51
13,G34A U143G,1.64
14,G34C A124G,2.03
15,G34C A124U,1.91
16,G34C A138G,2.05
17,G34C A140C,1.79
18,G34C A140U,1.31
19,G34C C37U,0.84
20,G34C U73C,1.82
21,G34C U96C,0.14
22,G34C U115C,1.82
23,G34C U130C,0.88
